Assay results as given in US20260184782A1 (TWIST BIOSCIENCE, published 2026).

T1: TIGIT (UniProt Q495A1 22-141, limits assumed)
T1 construct: also called T cell immunoreceptor with Ig and ITIM domains; hTIGIT
T1 sequence (looked up): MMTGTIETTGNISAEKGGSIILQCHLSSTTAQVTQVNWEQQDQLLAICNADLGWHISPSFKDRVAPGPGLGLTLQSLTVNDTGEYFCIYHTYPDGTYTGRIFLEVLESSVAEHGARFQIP

T2: recombinant human TIGIT (human, UniProt Q495A1 22-141, limits assumed)
T2 construct: also called T cell immunoreceptor with Ig and ITIM domains
T2 sequence (looked up): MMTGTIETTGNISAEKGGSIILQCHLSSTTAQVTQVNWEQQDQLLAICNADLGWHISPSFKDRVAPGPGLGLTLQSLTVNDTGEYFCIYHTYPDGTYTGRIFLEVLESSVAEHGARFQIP

T3: human TIGIT-Fc (human, UniProt Q495A1 22-141, limits assumed)
T3 construct: not shown: Fc; not described
T3 sequence (looked up): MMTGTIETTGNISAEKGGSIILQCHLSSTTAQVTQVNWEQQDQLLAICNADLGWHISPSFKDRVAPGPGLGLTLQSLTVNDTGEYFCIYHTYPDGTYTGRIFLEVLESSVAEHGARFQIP


Experiments:
TIGIT [1] = target: T1, TIGIT; experiment: ELISA; set-up: unit not given here
TIGIT [2] = target: T1, TIGIT; experiment: SPR (Carterra)
recombinant human TIGIT = target: T2, recombinant human TIGIT; experiment: SPR (Carterra), average
Description: Binding affinities of VHH-Fc proteins to recombinant human TIGIT were measured by SPR using a Carterra instrument (Table 10A). […] Average values reported from measurements from 1-2 samples.

human TIGIT-Fc = target: T3, human TIGIT-Fc; experiment: CD155 competition ELISA, single point; also: test concentration or dose not given here
Description: TIGIT/CD155 inhibition of VHH-Fcs were assessed using an ELISA assay (Table 10B). Briefly, human TIGIT-Fc was coated on a plate & then incubated with VHH-Fcs and human CD155-biotin. Bound CD155-biotin was detected using a streptavidin-HRP conjugate visualized with TMB. Strong inhibitors from the single point screen were titrated to determine EC50 (Table 10C).

| Binder | ELISA (TIGIT [1]) | Kd (TIGIT [2]) | koff (TIGIT [2]) | kon (TIGIT [2]) | Kd (recombinant human TIGIT) | koff (recombinant human TIGIT) | kon (recombinant human TIGIT) | OD (450 nm) (human TIGIT-Fc) |
| --- | --- | --- | --- | --- | --- | --- | --- | --- |
| TIGIT-211-30 (antibody, V domains shown) VH: EVQLLESGGGLVQPGGSLRLSCAASGFTFKSYGMHWVRQAPGKGLEWVSAISGSGGGTSYADSVKGRFTISRDNSKNTLYLQMNSLRAEDTAVYYCARAGQWLGDFDYWGQGTLVTVSS VL: DIQMTQSPSSLSASVGDRVTITCRASQPIGPDLLWYQQKPGKAPKLLIYRKSNRPSGVPSRFSGSGSGTDFTLTISSLQPEDFATYYCQQSYSTPYTFGQGTKVEIK | 8 | 2230 nM | 0.0681 s⁻¹ | 30500 M⁻¹ s⁻¹ |  |  |  |  |
| TIGIT-211-18 (antibody, V domains shown) VH: EVQLLESGGGLVQPGGSLRLSCAASGFTFGTIPMSWVRQAPGKGLEWVGVIWGGGGTYYADSVKGRFTISRDNSKNTLYLQMNSLRAEDTAVYYCAKAHGNPVSDLSFDYWGQGTLVTVSS VL: DIQMTQSPSSLSASVGDRVTITCSGDKLGDKYTSWYQQKPGKAPKLLIYHTSRLQDGVPSRFSGSGSGTDFTLTISSLQPEDFATYYCQQSYNLPLTFGQGTKVEIK | 9.7 | 268 nM | 0.000832 s⁻¹ | 3110 M⁻¹ s⁻¹ |  |  |  |  |
| TIGIT-SC138 (Fc fusion, VHH-Fc) VHH: EVQLVESGGGLVQPGGSLRLSCAASGFTLENNMMGWFRQAPGKGREFVAAISRSGTLKAYADSVKGRFTISADNSKNTAYLQMNSLKPEDTAVYYCARVRYYYDSSGYFFWFDLWGQGTLVTVSS |  |  |  |  | 7300 nM | 0.363 s⁻¹ | 49700 M⁻¹ s⁻¹ | 0.393 OD |
| TIGIT-211-17 (antibody, V domains shown) VH: EVQLLESGGGLVQPGGSLRLSCAASGFTFAEYSMNWVRQAPGKGLEWVSWISPHGALTYYADSVKGRFTISRDNSKNTLYLQMNSLRAEDTAVYYCARSYGGGFDYWGQGTLVTVSS VL: DIQMTQSPSSLSASVGDRVTITCRASQTIERRLNWYQQKPGKAPKLLIYQNDKRPSGVPSRFSGSGSGTDFTLTISSLQPEDFATYYCQQSYSIPPTFGQGTKVEIK | 13.2 | 472 nM | 0.126 s⁻¹ | 266000 M⁻¹ s⁻¹ |  |  |  |  |
| TIGIT-SC135 (Fc fusion, VHH-Fc) VHH: EVQLVESGGGLVQPGGSLRLSCAASGFAFGDSWMGWFRQAPGKEREWVASVLRGGTLRAYAVSVKGRFTISADNSKNAAYLQMNSLKPEDTAVYYCARASIVGTTTLVWGQGTLVTVSS |  |  |  |  | 1670 nM | 0.21 s⁻¹ | 126000 M⁻¹ s⁻¹ | 0.827 OD |
| TIGIT-211-28 (antibody, V domains shown) VH: EVQLLESGGGLVQPGGSLRLSCAASGFTFSTYAMSWVRQAPGKGLEWVSEISPSGGYTYYADSVKGRFTISRDNSKNTLYLQMNSLRAEDTAVYYCAKVKLGGGPNFDYWGQGTLVTVSS VL: DIQMTQSPSSLSASVGDRVTITCQGASLRNYYASWYQQKPGKAPKLLIYDTSKVASGVPSRFSGSGSGTDFTLTISSLQPEDFATYYCFQGSHIPYTFGQGTKVEIK | 7.2 | 63.1 nM | 0.0016 s⁻¹ | 25400 M⁻¹ s⁻¹ |  |  |  |  |

The next lines start with the values.

| ELISA (TIGIT [1]) | Kd (TIGIT [2]) | koff (TIGIT [2]) | kon (TIGIT [2]) | Kd (recombinant human TIGIT) | koff (recombinant human TIGIT) | kon (recombinant human TIGIT) | OD (450 nm) (human TIGIT-Fc) | Binder |
| --- | --- | --- | --- | --- | --- | --- | --- | --- |
|  |  |  |  | 6330 nM | 0.258 s⁻¹ | 40700 M⁻¹ s⁻¹ | 0.516 OD | TIGIT-SC210 (Fc fusion, VHH-Fc) VHH: EVQLVESGGGLVQPGGSLRLSCAASGFLFDSYWMVWFRQAPGKEREFVAAIWRSGTLKAYADSVKGRFTISADNSKNTAYLQMNSLKPEDTAVYYCARDHRAMVAPFDYWGQGTLVTVSS |
|  |  |  |  | 112000 nM | 0.00692 s⁻¹ | 143 M⁻¹ s⁻¹ | 0.374 OD | TIGIT-SC196 (Fc fusion, VHH-Fc) VHH: EVQLVESGGGLVQPGGSLRLSCAASGFAFSSDWMGWFRQAPGKEREWVASVLRGGYTWYADSVKGRFTISADNSKNTAYLQMNSLKPEDTAVYYCATEGLGYWGQGTLVTVSS |
|  |  |  |  | 302000 nM | 0.0054 s⁻¹ |  | 0.414 OD | TIGIT-SC157 (Fc fusion, VHH-Fc) VHH: EVQLVESGGGLVQPGGSLRLSCAASGFTFSPSWMGWFRQAPGKEREWVASVLRGGYTWYADSVKGRFTISADNSKNTAYLQMNSLKPEDTAVYYCTTEGYDFWSGYYDYWGQGTLVTVSS |
